Measurements taken from publication PMC4849472 (Cell Discovery, 2016).
Values belong to the binder of their own block, whether it stands above or below them.

Tests used:
Settings in all cases: both partners purified
Hsp90 [1] = molecular target: T1, Hsp90 (human, UniProt P07900 1-732); experiment: native MS; as a12 (Hsp90/Hsp70/Hop/GR/Hsp40/p23/FKBP51), then challenged with excess FKBP52
Hsp90 [2] = molecular target: T1, Hsp90; experiment: native MS; Hsp90_(2) 1 μM with 2 μM of both FKBP51 and FKBP52
Hsp90 [3] = molecular target: T1, Hsp90; experiment: native MS; Hsp90_(2) 3 μM with FKBP51 and FKBP52 in twofold molar excess (6 μM), the highest concentrations studied
Hsp90 [4] = molecular target: T1, Hsp90; experiment: native MS; competition: Hsp90_(2) with Hop, FKBP51 and FKBP52, all at equimolar concentration (3 μM)
[5] = molecular target: client-transfer complex (Hsp90)2(Hop)1(Hsp70)2(GR)1 (human, UniProt P07900 1-732; P31948 1-543; P0DMV8 1-641; P04150 521-777, F602S); experiment: native MS; (Hsp70)2, GR, Hop and (Hsp90)2 all at 0.5 μM with Hsp40 and excess ATP; then an equimolar ratio of FKBP52 added to the formed complex
Hsp90 [6] = molecular target: T1, Hsp90; experiment: as above
Hsp90 [7] = molecular target: T1, Hsp90; experiment: native MS; p23 added to the client-transfer complex without immunophilin, with ATP; MS/MS (collision-induced dissociation) of the isolated 32+ charge state of (Hsp90)2(p23)2(GR)1
Hsp90 [8] = molecular target: T1, Hsp90; experiment: native MS; as a8, then stoichiometric p23 added (300 μM ATP magnesium acetate, a further 15 min)

- stoichiometry N (Hsp90 [1]): 1 per Hsp90 monomer
- stoichiometry N (Hsp90 [2]): ≤ 2 per Hsp90 dimer
- stoichiometry N (Hsp90 [3]): ≤ 2 per Hsp90 monomer
- stoichiometry N (Hsp90 [4]): 1 per Hsp90 dimer
- stoichiometry N [5]: 1 per client-transfer complex
B1: FKBP52 (natural protein, human, UniProt Q02790 1-459, looked up)
chain: MTAEEMKATESGAQSAPLPMEGVDISPKQDEGVLKVIKREGTGTEMPMIGDRVFVHYTGWLLDGTKFDSSLDRKDKFSFDLGKGEVIKAWDIAIATMKVGEVCHITCKPEYAYGSAGSPPKIPPNATLVFEVELFEFKGEDLTEEEDGGIIRRIQTRGEGYAKPNEGAIVEVALEGYYKDKLFDQRELRFEIGEGENLDLPYGLERAIQRMEKGEHSIVYLKPSYAFGSVGKEKFQIPPNAELKYELHLKSFEKAKESWEMNSEEKLEQSTIVKERGTVYFKEGKYKQALLQYKKIVSWLEYESSFSNEEAQKAQALRLASHLNLAMCHLKLQAFSAAIESCNKALELDSNNEKGLFRRGEAHLAVNDFELARADFQKVLQLYPNNKAAKTQLAVCQQRIRRQLAREKKLYANMFERLAEEENKAKAEASSGDHPTDTEMKEEQKSNTAGSQSQVETEA
notes: FKBP52, human immunophilin; The cited PDB entries hold overlapping segments of FKBP52, not the construct used here; source: provided by Sophie Jackson and David Agard's labs; expressed and purified as previously described [33]

- stoichiometry N (Hsp90 [6]): 1 per Hsp90 dimer
B2: glucocorticoid receptor ligand-binding domain (residues 521-777, F602S) (domain or fragment, human, UniProt P04150 521-777, looked up)
chain: VPATLPQLTPTLVSLLEVIEPEVLYAGYDSSVPDSTWRIMTTLNMLGGRQVIAAVKWAKAIPGFRNLHLDDQMTLLQYSWMSLMAFALGWRSYRQSSANLLCFAPDLIINEQRMTLPCMYDQCKHMLYVSSELHRLQVSYEEYLCMKTLLLLSSVPKDGLKSQELFDEIRMTYIKELGKAIVKREGNSSQNWQRFYQLTKLLDSMHEVVENLLNYCFQTFLDKTMSIEFPEMLAEIITNQIPKYSNGNIKKLLFHQK
notes: Used without ligand; also called GR; source: provided by Sophie Jackson and David Agard's labs; expressed and purified as previously described [33]

- stoichiometry N (Hsp90 [7]): 2 per Hsp90 dimer
- stoichiometry N (Hsp90 [8]): 1 per Hsp90 dimer
B3: p23 (natural protein, human, UniProt Q15185 1-160, looked up)
chain: MQPASAKWYDRRDYVFIEFCVEDSKDVNVNFEKSKLTFSCLGGSDNFKHLNEIDLFHCIDPNDSKHKRTDRSILCCLRKGESGQSWPRLTKERAKLNWLSVDFNNWKDWEDDSDEDMSNFDRFSEMMNNMGGDEDVDLPEVDGADDDSQDSDDEKMPDLE
notes: p23 co-chaperone, human; source: provided by Sophie Jackson and David Agard's labs; expressed and purified as previously described [33]
